Measurements reported in patent US20110229908A1.

B1: monoclonal antibody KA1 (antibody, V domains shown)
VH: DVQLQESGPGLVNPSQSLSLTCTVTGYSITGDYAWNWIRQFPGNKLEWMGYISYSGLTSYNPSLKSRISITRDTSKNQFFLQLNSVATEDTATYYCTSFYYGYWYFDVWGAGTTVTVSS
VL: DIQMTQSPASLSASVGETVTITCRASENIYSFLTWYLQKQGKSPQLLVNNAKTLAEGVPSRFSGSGSGSQFSLKINSLQPEDFGTYYCQHHYGTPYTFGGGTKLEIKR
B2: monoclonal antibody 1B6 (antibody, mouse IgG1, V domains shown)
VH: RQFPGNKLEWMGYINYSGITSYNPSLKSRFSITRDTSKNQFFLQLNSVTTEDTATYYCASWYYGNWYFDVWGAGTTVTVSS
VL: DIQMTQSPASLSVSVGETVTITCRASENIYSNLAWYQQKQGNSPQLLVYAATNLADGVPSRFSGSGSGTQYSLKINSLQSEDFGNYYCQHFWGTPWTFGGGTKLEIKR

Experiments:
BJ kappa Ke (human) = assay: haemagglutination of sheep RBC coated with BJ kappa Ke
BJ kappa Bo (human) = assay: haemagglutination of sheep RBC coated with BJ kappa Bo

Binder	MAb dilution used against coated red cells (BJ kappa Ke (human))	MAb dilution used against coated red cells (BJ kappa Bo (human))
B1	1e-05 dilution	–
B2	–	1e-05 dilution
